Experimental data reported in patent US20080213836A1.

Tests used:
[1] = target: Medaka EP-1 serine protease domain (wild-type) (Oryzias latipes (Japanese Medaka)); assay: cell-based or functional assay
[2] = target: Medaka EP-2 serine protease domain (Oryzias latipes (Japanese Medaka)); assay: cell-based or functional assay

Medaka EP-1 serine protease domain (wild-type) (Oryzias latipes (Japanese Medaka)), sequence (chain, as listed by the source limits assumed): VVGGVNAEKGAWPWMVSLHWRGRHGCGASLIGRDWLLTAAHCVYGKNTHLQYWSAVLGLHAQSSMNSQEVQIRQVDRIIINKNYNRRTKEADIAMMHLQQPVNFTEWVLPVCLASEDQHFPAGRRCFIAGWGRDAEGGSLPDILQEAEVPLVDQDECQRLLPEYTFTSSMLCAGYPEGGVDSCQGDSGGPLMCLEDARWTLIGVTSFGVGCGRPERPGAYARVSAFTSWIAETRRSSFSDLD

Inhibition (%) of GD4K-βNA hydrolysis at 0.1 mg/ml [1]: 99%
Inhibition (%) of GD4K-βNA hydrolysis at 0.1 mg/ml [2]: 99%
Substance: SBTI (from UniProt P01070 25-205)
